Results taken from US20240392036A1 (UNIVERSITEIT GENT, published 2024).

T1: porcine kidney aminopeptidase N (APN), purified (Sigma) (porcine (Sus scrofa), UniProt P15145 33-963, biotinylated (1:3 ratio) when used as ligand in BLI)
T1 construct: Used coated in ELISA and biotinylated on SAX biosensors in BLI; also called purified kidney APN; porcine APN
T1 sequence: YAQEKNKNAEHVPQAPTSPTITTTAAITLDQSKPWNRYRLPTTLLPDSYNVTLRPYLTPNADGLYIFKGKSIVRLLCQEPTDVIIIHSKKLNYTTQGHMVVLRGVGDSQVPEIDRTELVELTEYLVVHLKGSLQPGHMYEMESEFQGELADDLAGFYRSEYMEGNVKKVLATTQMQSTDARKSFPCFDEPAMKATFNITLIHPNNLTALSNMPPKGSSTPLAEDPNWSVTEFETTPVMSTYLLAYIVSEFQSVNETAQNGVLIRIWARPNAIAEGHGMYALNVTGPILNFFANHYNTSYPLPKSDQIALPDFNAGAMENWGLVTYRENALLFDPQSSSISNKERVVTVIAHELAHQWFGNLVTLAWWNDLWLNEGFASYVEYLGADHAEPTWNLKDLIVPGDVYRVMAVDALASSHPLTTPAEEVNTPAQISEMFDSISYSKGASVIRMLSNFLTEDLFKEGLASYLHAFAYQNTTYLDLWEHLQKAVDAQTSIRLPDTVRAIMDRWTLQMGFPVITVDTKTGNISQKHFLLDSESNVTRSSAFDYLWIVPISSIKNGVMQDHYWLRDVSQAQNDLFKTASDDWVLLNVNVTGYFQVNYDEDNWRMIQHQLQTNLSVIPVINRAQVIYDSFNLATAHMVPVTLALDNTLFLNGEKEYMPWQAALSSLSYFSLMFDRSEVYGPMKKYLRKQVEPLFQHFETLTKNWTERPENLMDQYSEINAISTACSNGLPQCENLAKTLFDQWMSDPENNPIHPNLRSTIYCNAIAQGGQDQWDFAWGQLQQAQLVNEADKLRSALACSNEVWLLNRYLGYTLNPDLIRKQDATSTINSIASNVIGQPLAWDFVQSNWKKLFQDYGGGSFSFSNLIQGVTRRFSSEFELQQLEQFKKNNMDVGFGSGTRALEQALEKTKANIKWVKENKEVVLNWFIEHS

B1: α-APN-mIgG1 (clone IMM013), APN-specific mouse IgG1 monoclonal antibody (antibody)
heavy: QAYLQQSGAELVRSGASVKMSCKASGYTFTSYNMHWVKQTPGQGLEWIGYIYPGNGDINYNQKFKGKATLTADTSSNTAYMQISSLTSEDSAVYFCARGGVFDYWGQGTTLIVSSAKTTPPSVYPLAPGSAAQTNSMVTLGCLVKGYFPEPVTVTWNSGSLSSGVHTFPAVLQSDLYTLSSSVTVPSSTWPSETVTCNVAHPASSTKVDKKIVPRDCGCKPCICTVPEVSSVFIFPPKPKDVLTITLTPKVTCVVVDISKDDPEVQFSWFVDDVEVHTAQTQPREEQFNSTFRSVSELPIMHQDWLNGKEFKCRVNSAAFPAPIEKTISKTKGRPKAPQVYTIPPPKEQMAKDKVSLTCMITDFFPEDITVEWQWNGQPAENYKNTQPIMDTDGSYFVYSKLNVQKSNWEAGNTFTCSVLHEGLHNHHTEKSLSHSPGK
light: QIVLTQSPAIVSASPGEKVTITCSGSSSVNYMHWFQQKPGTSPKLWIYSTSNLASGVPGRFSGSGSGTSYSLTISRMEAEDAATYYCQQRTSYPYTFGGGTKLEIKRADAAPTVSIFPPSSEQLTSGGASVVCFLNNFYPKDINVKWKIDGSERQNGVLNSWTDQDSKDSTYSMSSTLTLTKDEYERHNSYTCEATHKTSTSPIVKSFNRNEC
notes: Purified from hybridoma supernatant by protein G; also called IMMO13; α-APN mAb (clone IMM013)
B2: α-APN-mIgG1-FedF fusion construct (clone IMM013 mouse IgG1 with FedF15-165 fused to the heavy chain) (other)
heavy: QAYLQQSGAELVRSGASVKMSCKASGYTFTSYNMHWVKQTPGQGLEWIGYIYPGNGDINYNQKFKGKATLTADTSSNTAYMQISSLTSEDSAVYFCARGGVFDYWGQGTTLIVSSAKTTPPSVYPLAPGSAAQTNSMVTLGCLVKGYFPEPVTVTWNSGSLSSGVHTFPAVLQSDLYTLSSSVTVPSSTWPSETVTCNVAHPASSTKVDKKIVPRDCGCKPCICTVPEVSSVFIFPPKPKDVLTITLTPKVTCVVVDISKDDPEVQFSWFVDDVEVHTAQTQPREEQFNSTFRSVSELPIMHQDWLNGKEFKCRVNSAAFPAPIEKTISKTKGRPKAPQVYTIPPPKEQMAKDKVSLTCMITDFFPEDITVEWQWNGQPAENYKNTQPIMDTDGSYFVYSKLNVQKSNWEAGNTFTCSVLHEGLHNHHTEKSLSHSPGKGGGGSGGGGSGGGGSNSSASSAQVTGTLLGTGKTNTTQMPALYTWQHQIYNVNFIPSSSGTLTCQAGTILVWKNGRETQYALECRVSIHHSSGSINESQWGQQSQVGFGTACGNKKCRFTGFEISLRIPPNAQTYPLSSGDLKGSFSLTNKEVNWSASIYVPAIAK
light: QIVLTQSPAIVSASPGEKVTITCSGSSSVNYMHWFQQKPGTSPKLWIYSTSNLASGVPGRFSGSGSGTSYSLTISRMEAEDAATYYCQQRTSYPYTFGGGTKLEIKRADAAPTVSIFPPSSEQLTSGGASVVCFLNNFYPKDINVKWKIDGSERQNGVLNSWTDQDSKDSTYSMSSTLTLTKDEYERHNSYTCEATHKTSTSPIVKSFNRNEC
notes: also called FedF-linked α-APN-mIgG1; aAPN-mIgG1-FedF

Tests used:
[1] = biological target: T1, porcine kidney aminopeptidase N (APN), …; assay: bio-layer interferometry, biotinylated porcine APN on SAX biosensor, series of analyte concentrations (not labelled on the sheet)
[2] = biological target: T1, porcine kidney aminopeptidase N (APN), …; assay: BLI (Octet RED96), biotinylated porcine APN on SAX biosensor, mAb at 100 nM, 1:1 local full fit

Row | Binder | Kd [1] | Kd [2]
1 | B1 | 1.4 nM | 1.6 nM
2 | B2 | 5.1 nM | –
